Measured values as given in article PMC3176292, “Mutations in Protein-Binding Hot-Spots on the Hub Protein Smad3 Differentially Affect Its Protein Interactions and Smad3-Regulated Gene Expression” (PLoS ONE, 2011).

T1: Flag-SARA, full length (UniProt O95405 1-1425)
T1 construct: SARA; plasmid pCMV5b-Flag-SARA; also called SARA FL; source: HEK-293, transfected, in lysate
T1 sequence (looked up): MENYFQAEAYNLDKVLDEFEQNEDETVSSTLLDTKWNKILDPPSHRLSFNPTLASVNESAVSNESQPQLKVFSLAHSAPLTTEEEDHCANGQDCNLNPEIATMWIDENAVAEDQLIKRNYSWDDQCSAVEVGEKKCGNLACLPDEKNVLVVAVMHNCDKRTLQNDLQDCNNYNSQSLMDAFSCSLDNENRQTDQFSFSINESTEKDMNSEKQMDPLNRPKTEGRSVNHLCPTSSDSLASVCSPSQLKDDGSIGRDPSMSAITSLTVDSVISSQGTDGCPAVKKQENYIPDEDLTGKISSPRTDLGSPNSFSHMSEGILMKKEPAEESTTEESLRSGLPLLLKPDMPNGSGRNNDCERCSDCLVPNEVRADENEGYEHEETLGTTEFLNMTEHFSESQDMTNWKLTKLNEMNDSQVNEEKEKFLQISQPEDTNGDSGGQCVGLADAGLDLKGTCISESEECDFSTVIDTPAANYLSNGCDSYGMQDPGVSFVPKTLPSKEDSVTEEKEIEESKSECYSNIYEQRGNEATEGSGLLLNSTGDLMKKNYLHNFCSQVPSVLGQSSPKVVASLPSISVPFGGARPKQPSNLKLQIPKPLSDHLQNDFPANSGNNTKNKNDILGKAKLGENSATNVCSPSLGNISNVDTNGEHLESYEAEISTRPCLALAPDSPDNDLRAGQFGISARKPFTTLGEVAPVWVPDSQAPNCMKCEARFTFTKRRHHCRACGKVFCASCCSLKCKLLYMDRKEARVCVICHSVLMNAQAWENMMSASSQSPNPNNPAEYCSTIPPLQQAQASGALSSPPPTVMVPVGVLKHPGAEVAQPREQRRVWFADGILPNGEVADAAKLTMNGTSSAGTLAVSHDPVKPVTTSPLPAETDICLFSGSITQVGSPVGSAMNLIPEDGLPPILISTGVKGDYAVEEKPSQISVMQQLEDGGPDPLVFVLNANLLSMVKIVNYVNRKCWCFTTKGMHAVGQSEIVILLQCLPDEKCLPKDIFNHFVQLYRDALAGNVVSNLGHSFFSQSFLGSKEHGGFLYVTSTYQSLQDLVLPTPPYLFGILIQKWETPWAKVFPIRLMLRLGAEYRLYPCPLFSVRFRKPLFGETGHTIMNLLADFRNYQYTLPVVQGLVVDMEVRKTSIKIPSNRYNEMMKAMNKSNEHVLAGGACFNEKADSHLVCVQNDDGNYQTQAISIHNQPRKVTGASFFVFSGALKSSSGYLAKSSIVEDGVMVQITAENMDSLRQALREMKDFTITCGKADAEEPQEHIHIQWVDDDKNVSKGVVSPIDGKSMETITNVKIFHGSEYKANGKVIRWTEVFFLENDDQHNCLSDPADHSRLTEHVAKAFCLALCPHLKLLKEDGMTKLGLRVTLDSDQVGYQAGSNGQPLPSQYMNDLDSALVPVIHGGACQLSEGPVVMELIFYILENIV

T2: SIP1 Smad-binding domain (amino acids 315–487) on the 3xFlag-thioredoxin scaffold (UniProt Q9R0G7 315-487)
T2 construct: SIP1, amino acids 315–487; amplified from pACT2-SIP1-315-487 (from D. Huylebroeck), which I recall as a mouse clone; cloned into the RsrII site of pCI-3xFLAG-Trx; also called Sip1 315–487; TrxSIP1; source: HEK-293, transfected, in lysate
T2 sequence (looked up): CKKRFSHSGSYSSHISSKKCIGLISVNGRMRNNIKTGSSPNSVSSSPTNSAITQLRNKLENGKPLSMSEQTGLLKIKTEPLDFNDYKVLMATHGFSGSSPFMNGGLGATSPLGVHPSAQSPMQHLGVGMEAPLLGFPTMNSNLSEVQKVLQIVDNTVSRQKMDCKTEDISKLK


Tests used:
Flag-SARA, full length = molecular target: T1, Flag-SARA, full length; assay: co-IP; LUMIER: Renilla luciferase-Smad3 and Flag-tagged partner co-expressed with constitutively active Alk5 in HEK-293; Flag protein captured from cleared lysate (TNE: 10 mM Tris-HCl pH 7.8, 150 mM NaCl, 1 mM EDTA, 1% Igepal CA-630) on anti-Flag 96-well plates, 2 h at 4 °C; co-precipitated Renilla luciferase activity, TrxGA background subtracted, percent of wild-type Smad3; details: partners not purified
[1] = molecular target: T2, SIP1 Smad-binding domain (amino acids …); assay: as above; details: partners not purified

percent binding relative to wild-type Smad3 (Flag-SARA, full length) [%]	percent binding relative to wild-type Smad3 [1] [%]	Binder
12	162	Renilla luciferase-Smad3 Q322A/Y324A (natural protein, UniProt P84022 1-425, looked up, Smad3; source: HEK-293, transfected together with constitutively active Alk5, in lysate) MSSILPFTPPIVKRLLGWKKGEQNGQEEKWCEKAVKSLVKKLKKTGQLDELEKAITTQNVNTKCITIPRSLDGRLQVSHRKGLPHVIYCRLWRWPDLHSHHELRAMELCEFAFNMKKDEVCVNPYHYQRVETPVLPPVLVPRHTEIPAEFPPLDDYSHSIPENTNFPAGIEPQSNIPETPPPGYLSEDGETSDHQMNHSMDAGSPNLSPNPMSPAHNNLDLQPVTYCEPAFWCSISYYELNQRVGETFHASQPSMTVDGFTDPSNSERFCLGLLSNVNRNAAVELTRRHIGRGVRLYYIGGEVFAECLSDSAIFVQSPNCNARAGWHPATVCKIPPGCNLKIFNNQEFAALLAQSVNQGFEAVYQLTRMCTIRMSFVKGWGAEYRRQTVTSTPCWIELHLNGPLQWLDKVLTQMGSPSIRCSSVS
42	339	Renilla luciferase-Smad3 V224A (natural protein, UniProt P84022 1-425, looked up, Smad3; source: HEK-293, transfected together with constitutively active Alk5, in lysate) MSSILPFTPPIVKRLLGWKKGEQNGQEEKWCEKAVKSLVKKLKKTGQLDELEKAITTQNVNTKCITIPRSLDGRLQVSHRKGLPHVIYCRLWRWPDLHSHHELRAMELCEFAFNMKKDEVCVNPYHYQRVETPVLPPVLVPRHTEIPAEFPPLDDYSHSIPENTNFPAGIEPQSNIPETPPPGYLSEDGETSDHQMNHSMDAGSPNLSPNPMSPAHNNLDLQPATYCEPAFWCSISYYELNQRVGETFHASQPSMTVDGFTDPSNSERFCLGLLSNVNRNAAVELTRRHIGRGVRLYYIGGEVFAECLSDSAIFVQSPNCNQRYGWHPATVCKIPPGCNLKIFNNQEFAALLAQSVNQGFEAVYQLTRMCTIRMSFVKGWGAEYRRQTVTSTPCWIELHLNGPLQWLDKVLTQMGSPSIRCSSVS
154	128	Renilla luciferase-Smad3 S254A (natural protein, UniProt P84022 1-425, looked up, Smad3; source: HEK-293, transfected together with constitutively active Alk5, in lysate) MSSILPFTPPIVKRLLGWKKGEQNGQEEKWCEKAVKSLVKKLKKTGQLDELEKAITTQNVNTKCITIPRSLDGRLQVSHRKGLPHVIYCRLWRWPDLHSHHELRAMELCEFAFNMKKDEVCVNPYHYQRVETPVLPPVLVPRHTEIPAEFPPLDDYSHSIPENTNFPAGIEPQSNIPETPPPGYLSEDGETSDHQMNHSMDAGSPNLSPNPMSPAHNNLDLQPVTYCEPAFWCSISYYELNQRVGETFHASQPAMTVDGFTDPSNSERFCLGLLSNVNRNAAVELTRRHIGRGVRLYYIGGEVFAECLSDSAIFVQSPNCNQRYGWHPATVCKIPPGCNLKIFNNQEFAALLAQSVNQGFEAVYQLTRMCTIRMSFVKGWGAEYRRQTVTSTPCWIELHLNGPLQWLDKVLTQMGSPSIRCSSVS

The next lines start with the binder.

Binder	percent binding relative to wild-type Smad3 (Flag-SARA, full length) [%]	percent binding relative to wild-type Smad3 [1] [%]
Renilla luciferase-Smad3 C338A (natural protein, UniProt P84022 1-425, looked up, Smad3; source: HEK-293, transfected together with constitutively active Alk5, in lysate) MSSILPFTPPIVKRLLGWKKGEQNGQEEKWCEKAVKSLVKKLKKTGQLDELEKAITTQNVNTKCITIPRSLDGRLQVSHRKGLPHVIYCRLWRWPDLHSHHELRAMELCEFAFNMKKDEVCVNPYHYQRVETPVLPPVLVPRHTEIPAEFPPLDDYSHSIPENTNFPAGIEPQSNIPETPPPGYLSEDGETSDHQMNHSMDAGSPNLSPNPMSPAHNNLDLQPVTYCEPAFWCSISYYELNQRVGETFHASQPSMTVDGFTDPSNSERFCLGLLSNVNRNAAVELTRRHIGRGVRLYYIGGEVFAECLSDSAIFVQSPNCNQRYGWHPATVCKIPPGANLKIFNNQEFAALLAQSVNQGFEAVYQLTRMCTIRMSFVKGWGAEYRRQTVTSTPCWIELHLNGPLQWLDKVLTQMGSPSIRCSSVS	136	44
Renilla luciferase-Smad3 E267A (natural protein, UniProt P84022 1-425, looked up, Smad3; source: HEK-293, transfected together with constitutively active Alk5, in lysate) MSSILPFTPPIVKRLLGWKKGEQNGQEEKWCEKAVKSLVKKLKKTGQLDELEKAITTQNVNTKCITIPRSLDGRLQVSHRKGLPHVIYCRLWRWPDLHSHHELRAMELCEFAFNMKKDEVCVNPYHYQRVETPVLPPVLVPRHTEIPAEFPPLDDYSHSIPENTNFPAGIEPQSNIPETPPPGYLSEDGETSDHQMNHSMDAGSPNLSPNPMSPAHNNLDLQPVTYCEPAFWCSISYYELNQRVGETFHASQPSMTVDGFTDPSNSARFCLGLLSNVNRNAAVELTRRHIGRGVRLYYIGGEVFAECLSDSAIFVQSPNCNQRYGWHPATVCKIPPGCNLKIFNNQEFAALLAQSVNQGFEAVYQLTRMCTIRMSFVKGWGAEYRRQTVTSTPCWIELHLNGPLQWLDKVLTQMGSPSIRCSSVS	82	88
Renilla luciferase-Smad3 L340A (natural protein, UniProt P84022 1-425, looked up, Smad3; source: HEK-293, transfected together with constitutively active Alk5, in lysate) MSSILPFTPPIVKRLLGWKKGEQNGQEEKWCEKAVKSLVKKLKKTGQLDELEKAITTQNVNTKCITIPRSLDGRLQVSHRKGLPHVIYCRLWRWPDLHSHHELRAMELCEFAFNMKKDEVCVNPYHYQRVETPVLPPVLVPRHTEIPAEFPPLDDYSHSIPENTNFPAGIEPQSNIPETPPPGYLSEDGETSDHQMNHSMDAGSPNLSPNPMSPAHNNLDLQPVTYCEPAFWCSISYYELNQRVGETFHASQPSMTVDGFTDPSNSERFCLGLLSNVNRNAAVELTRRHIGRGVRLYYIGGEVFAECLSDSAIFVQSPNCNQRYGWHPATVCKIPPGCNAKIFNNQEFAALLAQSVNQGFEAVYQLTRMCTIRMSFVKGWGAEYRRQTVTSTPCWIELHLNGPLQWLDKVLTQMGSPSIRCSSVS	58	159
Renilla luciferase-Smad3 K341A (natural protein, UniProt P84022 1-425, looked up, Smad3; source: HEK-293, transfected together with constitutively active Alk5, in lysate) MSSILPFTPPIVKRLLGWKKGEQNGQEEKWCEKAVKSLVKKLKKTGQLDELEKAITTQNVNTKCITIPRSLDGRLQVSHRKGLPHVIYCRLWRWPDLHSHHELRAMELCEFAFNMKKDEVCVNPYHYQRVETPVLPPVLVPRHTEIPAEFPPLDDYSHSIPENTNFPAGIEPQSNIPETPPPGYLSEDGETSDHQMNHSMDAGSPNLSPNPMSPAHNNLDLQPVTYCEPAFWCSISYYELNQRVGETFHASQPSMTVDGFTDPSNSERFCLGLLSNVNRNAAVELTRRHIGRGVRLYYIGGEVFAECLSDSAIFVQSPNCNQRYGWHPATVCKIPPGCNLAIFNNQEFAALLAQSVNQGFEAVYQLTRMCTIRMSFVKGWGAEYRRQTVTSTPCWIELHLNGPLQWLDKVLTQMGSPSIRCSSVS	29	66
Renilla luciferase-Smad3 P335A/P336A (natural protein, UniProt P84022 1-425, looked up, Smad3; source: HEK-293, transfected together with constitutively active Alk5, in lysate) MSSILPFTPPIVKRLLGWKKGEQNGQEEKWCEKAVKSLVKKLKKTGQLDELEKAITTQNVNTKCITIPRSLDGRLQVSHRKGLPHVIYCRLWRWPDLHSHHELRAMELCEFAFNMKKDEVCVNPYHYQRVETPVLPPVLVPRHTEIPAEFPPLDDYSHSIPENTNFPAGIEPQSNIPETPPPGYLSEDGETSDHQMNHSMDAGSPNLSPNPMSPAHNNLDLQPVTYCEPAFWCSISYYELNQRVGETFHASQPSMTVDGFTDPSNSERFCLGLLSNVNRNAAVELTRRHIGRGVRLYYIGGEVFAECLSDSAIFVQSPNCNQRYGWHPATVCKIAAGCNLKIFNNQEFAALLAQSVNQGFEAVYQLTRMCTIRMSFVKGWGAEYRRQTVTSTPCWIELHLNGPLQWLDKVLTQMGSPSIRCSSVS	16	123
